This is an account of results in publication PMC3507442.

This test deals with vimentin (Rat2) (UniProt P31000). Kind of test: co-immunoprecipitation with Flag-Beclin 1. As to conditions: reference: wild-type Flag-Beclin 1; sites S234,S295.

“Beclin 1 (from UniProt Q14457) S234A/S295A (AA)”: the “binding against the reference” value is “weaker”.
